Measured values from patent US20120282646A1 (KOREA RESEARCH INSTITUTE OF BIOSCIENCE AND BIOTECHNOLOGY, published 2012).
Values belong to the binder of their own block, whether it stands above or below them.

Experiments:
[1] = target: T1, Flag-Pyk2 (proline-rich tyrosine kinase 2 with N-terminal Flag tag, expressed from pFlag-Pyk2) (UniProt Q14289 1-1009); test: anti-Flag immunoprecipitation from 293T lysate, Western blot with anti-GST
T1 construct: Overexpressed in cells; not shown: N-terminal Flag tag from the pBICEP-CMV-1 vector
From the text: To determine a SOCS2 domain which is important in the binding with Pyk2, the present inventors carried out the following experiment. HA-Ubiquitin, pFlag-Pyk2, and, GST expression vector, pGST-SOCS2, pGST-SOCS2-ΔSH2 or pGST-SOCS2-ΔSOCS were cotransformed into 293T cells using Lipofectamin 2000. After 4 hr of transformation, the medium was replaced to a new culture medium, and 24 hr later, cells were lysed. The each cell lysate was allowed to react with anti-Flag antibody. The antigen-antibody complexes were precipitated by incubation at 4° C. for 1 day with G-protein-conjugated agarose. The immunoprecipitated complexes were washed with 1×PBS. Western blot analysis was performed by the same method in Example <2-1> using anti-GST antibody, anti-Flag antibody, or anti-HA antibody (Santa Cruz, U.S.A.).

[2] = target: T1, Flag-Pyk2 (proline-rich tyrosine kinase …); test: anti-Flag immunoprecipitation from NK-92 lysate, Western blot with anti-GST
From the text: (§1) From Example <12-4>, it was confirmed that phosphorylated Pyk2 and SOCS2 bind each other. To determine whether phosphorylation of Pyk2 is important in the binding with SOCS2 or not, the present inventors carried out the following experiment. First of all, HA-ubiquitin, pGST-SOCS2, and, pFlag-Pyk2 or pFlag-Pyk2-Y402F were cotransformed into NK-92 cells using Lipofectamin 2000. After 4 hr of transformation, the medium was replaced to a new culture medium, and 24 hr later, cells were lysed. The each cell lysate was allowed to react with anti-Flag antibody. The antigen-antibody complexes were precipitated by incubation at 4° C. for 1 day with G-protein-conjugated agarose. The immunoprecipitated complexes were washed with 1×PBS. Western blot analysis was performed by the same method in Example <2-1> using anti-p-Pyk2^Tyr402 antibody, anti-GST antibody, anti-Flag antibody or anti-HA antibody.

[3] = target: T2, Flag-Pyk2-Y402F (mutant Pyk2 in which tyrosine 402 had been mutated to phenylalanine, N-terminal Flag tag) (UniProt Q14289 1-1009); test: as above
T2 construct: Made from pFlag-Pyk2 by site-directed mutagenesis; also called pFlag-Pyk2-Y402F; not shown: N-terminal Flag tag from the pBICEP-CMV-1 vector
From the text: as §1

T1 sequence (Q14289 whole entry): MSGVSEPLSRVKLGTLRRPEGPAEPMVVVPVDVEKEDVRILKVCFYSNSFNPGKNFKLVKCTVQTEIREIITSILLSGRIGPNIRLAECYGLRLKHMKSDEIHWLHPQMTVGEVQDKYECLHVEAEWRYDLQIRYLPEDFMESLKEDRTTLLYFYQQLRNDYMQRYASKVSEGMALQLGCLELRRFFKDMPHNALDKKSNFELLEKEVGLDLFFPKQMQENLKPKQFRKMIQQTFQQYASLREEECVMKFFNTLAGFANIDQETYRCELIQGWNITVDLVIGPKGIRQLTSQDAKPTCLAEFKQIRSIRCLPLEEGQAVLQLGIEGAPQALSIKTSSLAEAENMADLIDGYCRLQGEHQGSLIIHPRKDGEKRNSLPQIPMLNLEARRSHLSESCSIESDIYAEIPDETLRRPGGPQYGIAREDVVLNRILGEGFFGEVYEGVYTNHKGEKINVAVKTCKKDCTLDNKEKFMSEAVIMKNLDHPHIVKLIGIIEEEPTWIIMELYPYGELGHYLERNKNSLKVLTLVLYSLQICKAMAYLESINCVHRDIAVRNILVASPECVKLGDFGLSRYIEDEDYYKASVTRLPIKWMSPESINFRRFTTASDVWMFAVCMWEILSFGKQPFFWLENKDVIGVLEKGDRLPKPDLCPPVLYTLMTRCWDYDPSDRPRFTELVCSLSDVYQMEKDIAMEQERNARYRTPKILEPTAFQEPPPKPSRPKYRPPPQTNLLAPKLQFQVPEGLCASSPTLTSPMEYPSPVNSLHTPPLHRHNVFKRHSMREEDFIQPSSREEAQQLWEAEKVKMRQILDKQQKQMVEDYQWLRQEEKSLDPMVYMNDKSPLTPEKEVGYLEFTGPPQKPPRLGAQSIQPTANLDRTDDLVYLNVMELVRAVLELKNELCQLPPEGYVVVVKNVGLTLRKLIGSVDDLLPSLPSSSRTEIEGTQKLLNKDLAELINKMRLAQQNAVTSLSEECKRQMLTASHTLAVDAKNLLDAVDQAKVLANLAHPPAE
T2 sequence (Q14289 whole entry Y402F): as the sequence (Q14289 whole entry) above, with Y402F counted along it

binding result [1]: no binding
B1: GST-SOCS2-ΔSH2 (mutant SOCS2 in which the SH2 domain was deleted, N-terminal GST tag) (other)
chain: MTLRCLEPSGNGGEGTRSQWGTAGSAEEPSPQAARLAKALRELGQ
notes: also called pGST-SOCS2-ΔSH2; not shown: N-terminal GST tag of the pEBG vector and the junction to it

binding result [2]: binds
binding result [3]: no binding
B2: GST-SOCS2 (SOCS2, suppressor of cytokine signaling 2, with N-terminal GST tag, expressed from pGST-SOCS2) (other, UniProt O14508 1-198, looked up)
chain: MTLRCLEPSGNGGEGTRSQWGTAGSAEEPSPQAARLAKALRELGQTGWYWGSMTVNEAKEKLKEAPEGTFLIRDSSHSDYLLTISVKTSAGPTNLRIEYQDGKFRLDSIICVKSKLKQFDSVVHLIDYYVQMCKDKRTGPEAPRNGTVHLYLTKPLYTSAPSLQHLCRLTINKCTGAIWGLPLPTRLKDYLEEYKFQV
notes: Overexpressed in 293T or NK-92 cells and tested in cell lysate; not shown: N-terminal GST tag from the pEBG vector
